The values below come from PMC3375900.

For the test, the target named is Hrs (rat (endogenous in rat brain cytosol)) (UniProt Q9JJ50). The test can be described thus: co-IP.
UniProt Q9JJ50, sequence (Q9JJ50 whole entry): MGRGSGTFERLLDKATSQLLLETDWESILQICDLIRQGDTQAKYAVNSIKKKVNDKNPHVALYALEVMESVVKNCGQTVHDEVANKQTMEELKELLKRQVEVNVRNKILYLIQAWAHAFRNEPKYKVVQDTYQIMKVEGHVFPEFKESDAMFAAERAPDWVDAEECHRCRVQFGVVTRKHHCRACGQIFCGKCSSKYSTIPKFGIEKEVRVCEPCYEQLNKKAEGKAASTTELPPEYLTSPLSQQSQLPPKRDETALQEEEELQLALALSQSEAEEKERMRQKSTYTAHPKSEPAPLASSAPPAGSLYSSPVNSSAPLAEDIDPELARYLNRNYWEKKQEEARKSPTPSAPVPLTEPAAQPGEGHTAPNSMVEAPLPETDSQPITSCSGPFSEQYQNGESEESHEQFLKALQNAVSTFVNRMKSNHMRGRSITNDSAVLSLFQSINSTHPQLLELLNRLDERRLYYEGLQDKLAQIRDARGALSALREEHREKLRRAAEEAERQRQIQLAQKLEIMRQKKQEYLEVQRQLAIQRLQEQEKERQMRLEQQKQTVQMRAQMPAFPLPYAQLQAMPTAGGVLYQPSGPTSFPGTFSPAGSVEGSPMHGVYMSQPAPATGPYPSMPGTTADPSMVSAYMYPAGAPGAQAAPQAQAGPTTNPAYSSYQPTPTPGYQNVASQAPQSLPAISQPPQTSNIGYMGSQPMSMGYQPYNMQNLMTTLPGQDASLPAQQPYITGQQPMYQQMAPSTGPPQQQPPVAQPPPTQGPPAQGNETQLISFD

In turn, “signal-transducing adaptor molecule (STAM) (from UniProt Q5XHY7 1-523) (natural protein)” gave a percent of STAM remaining in the cytosol after immunodepletion of Hrs of 16.5%.
